Data from patent US20240239902A1.

Target: NKG2D on effector cells (NK cells, MNC) (human) (UniProt P26718)
Assay: cell-based or functional assay

UniProt P26718, sequence (P26718 whole entry): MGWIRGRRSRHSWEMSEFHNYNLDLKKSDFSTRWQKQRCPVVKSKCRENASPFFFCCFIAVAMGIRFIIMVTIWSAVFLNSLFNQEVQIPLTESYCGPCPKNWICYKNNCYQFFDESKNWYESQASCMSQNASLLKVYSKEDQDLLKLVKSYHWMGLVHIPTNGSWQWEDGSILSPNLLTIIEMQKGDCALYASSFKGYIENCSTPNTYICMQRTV

maximum lysis, CD19-DE mediated ADCC against GRANTA-519 with MNC, in combination with the bsAb (4 h 51Cr release): 24.5%
B1: bispecific antibody [CD20×NKG2D #3] (bispecific antibody, part only; not given: constant regions, Fab-scFv linker, tags, not shown: another chain or arm of the molecule; a dimerising Fc or GST; small tags and cut ends)
VH: QVQLQQPGAELVKPGASVKMSCKASGYTFTSYNMHWVKQTPGRGLEWIGAIYPGNGDTSYNQKFKGKATLTADKSSSTAYMQLSSLTSEDSAVYYCARSTYYGGDWYFNVWGAGTTVTVSS
VL: QIVLSQSPAILSASPGEKVTMTCRASSSVSYIHWFQQKPGSSPKPWIYATSNLASGVPVRFSGSGSGTSYSLTISRVEAEDAATYYCQQWTSNPPTFGGGTKLEIK
scFv: QVQLVQSGAEVKKPGASVKVSCKASGYTFTSYGISWVRQAPGQGLEWMGGIIPIFGTANYAQKFQGRVTITADESTSTAYMELSSLRSEDTAVYYCAKDLYDYVWGSYRPNWYFDLWGRGTLVTVSSGSASAPKLEEGEFSEARVSSELTQDPAVSVALGQTVRITCQGDSLRGYYASWYQQKPGQAPVLVTYGNNKRPSGIPDRFSGSSSGNTASLTITGTQAEDEADYYCNSRDNNGNFVIFGGGTKLTVL
